Assay type in all cases: binding
One assay deals with T1, calmodulin (Homo sapiens, UniProt P0DP23).
T1 construct: purchased CalBiochem, USA
Kind of assay: Yeast proteome chip probed with biotinylated calmodulin. The conditions noted are these: biotinylated calmodulin in the presence of calcium. An excerpt:
To test for protein-protein interactions, the yeast proteome was probed with calmodulin (11). Calmodulin is a highly conserved calcium-binding protein involved in many calcium-regulated cellular processes and has many known physical partners (Hook et al., 2001, Annu. Rev. Pharmacol. Toxicol. 41:471). The calmodulin probe was biotinylated, and bound probe was detected using Cy3-labeled streptavidin. As a control, the yeast proteome was probed with Cy3-labeled streptavidin alone.
Generally, protein-protein interactions can be assayed as follows. Blocked proteome chips are washed three to five times in PBS buffer, and the extra liquid on the glass surface is removed by tapping the slides vertically on a KIMWIPE™. 200 ∞l of biotinylated protein probe is added to the proteome chip and immediately covered by a hydrophobic plastic cover slip (GRACE BIO-LABS™, USA). After trapped air bubbles are removed, the chip is incubated in a humidity chamber at room temperature (RT) for one hour. To remove the cover slip, the chip is immersed into large volume of PBS buffer (>50 ml), and the slip should float away. The chip is then moved to a second PBS bath (>50 ml) and washed 3×5 min with shaking at RT. After removing extra liquid on the surface of the chip, at least 150 μl of Cy3- or Cy5-conjugated streptavidin (PIERCE™, USA; 1:2000 to 1:4000 dilution) is added to the surface and covered by a hydrophobic plastic cover slip (GRACE BIO-LABS™, USA). The chip is incubated for greater than 30 min in the dark at RT. The chip is then washed as described above. To completely remove the liquid on the chip, the chip is spun to dryness at 1500-2000 rpm for 5-10 min at RT.
• 1. S. Fields, Y. Kohara, D. J. Lockhart, Proc. Natl. Acad. Sci. 96, 8825 (1999); A. Goffeau et al., Science 274, 563 (1996). • 2 P. Ross-Macdonald et al., Nature 402, 413 (1999); J. L., DeRisi, V. R. Iyer, P. O. Brown, Science 278, 680 (1997); E. A. Winzeler et al., Science 285, 901 (1999). P. Uetz et al., Nature 403, 623 (2000); T. Ito et al., Proc. Natl. Acad. Sci. USA. 97, 1143 (2000) • 3 H. Zhu, M. Snyder, Curr. Opin. Chem. Biol. 5, 40 (2001). • 4 M. R. Martzen et al., Science 286, 1153 (1999). • 5 H. Zhu et al., Nat. Genet. 26, 283 (2000). • 6 G. MacBeath, S. L. Schreiber, Science 289, 1760 (2000). • 7 A. Caveman, J. Cell Sci. 113, 3543 (2000). • 8 P. Arenkov et al., Anal. Biochem 278, 123 (2000). • 9 D. A. Mitchell, T. K. Marshall, R. J. Deschenes, Yeast 9, 715 (1993). The expression vector pEGH was created by inserting an RGS-HisX6 epitope tag between the GST gene and the polycloning site of pEG(KG). The yeast ORFs were cloned using the strategy described previously (5), except every step was done in a 96-well format. Plasmid DNAs confirmed by DNA sequencing were reintroduced into both yeast (Y258) and E. coli (DH5a). […] 0.1 mM calcium was present in buffers in all subsequent steps. The chip was washed three times with PBS at RT. Cy3-conjugated streptavidin (Jackson IR, USA) (1:5000 dilution) was added to the chip and incubated for 30 min at RT. After extensive washing, the chip was spun dry and scanned using a microarray scanner; the data was subsequently acquired with the GENEPIX™ array densitometry software (Axon, USA). • 12 S. S. Hook, A. R. Means, Annu. Rev. […]

The subject of the next assay is RNA-polyA+. Kind of assay: Yeast proteome chip probed with biotin-labeled polyA+ RNA. As to conditions: Cy3-streptavidin. The source says:
(§1) Protein-DNA and protein-RNA interactions are important for many fundamental biological functions such as transcription regulation, chromosome segregation and maintenance, and RNA transport and processing (Williamson, 2000, Nat. Struct. Biol. 7(10):834-7). To explore the possibility of using a proteome chip to identify proteins that bind to DNA or RNA molecules, total yeast genomic DNA was labeled using Cy3-CTP and Klenow fragment, and polyA^+ was labeled using a biotinylated psoralen-derivative (31). Each probe was incubated with a different proteome chip (FIG. 3A).
(§2) The protein-nucleic acid interaction was assayed as follows. The nucleic acid robes were labeled as described by Winzeler et al. (1999, Science 285:901). Blocked proteome chips were washed three to five times in PBS buffer, and the extra liquid on the glass surface was removed by tapping the slides vertically on a KIMWIPE™. 200 μl of labeled nuclei acid probe ([…] poly(dC/dG); 100-300 mM NaCl; 50-300 mM HEPES, pH 7.0-8.5; 10 mM MgCl2) was added to the proteome chip and immediately covered by a hydrophobic plastic cover slip (GRACE BIO-LABS™, USA). After trapped air bubbles were removed, the chip was incubated in a humidity chamber in the dark at room temperature (“RT”) for one hour. To remove the cover slip, the chip was immersed into large volume of PBS buffer(>50 ml), so that the slip would float away. The chip was then moved to a second PBS bath (>50 ml) and washed 3×5 min with shaking in the dark at RT. To completely remove the liquid on the chip, the chip was spun to dryness at 1500-2000 rpm for 5-10 min at RT.
RNA-polyA^+ from exponentially growing cells was labeled with biotin and used to probe the proteome microarray. The positive signals were detected using Cy3-streptavidin. […] In addition to proteins that likely directly or indirectly interact with RNA, we found two transcription factors (Bur6p and Tos8p), one transcriptional silencer (Hst3p), six other proteins encoded by known ORFs, and seven proteins from uncharacterized ORFs.

Another assay relates to total yeast genomic DNA. Description: Yeast proteome chip probed with labeled genomic DNA. The conditions noted are these: Cy3-labeled genomic DNA, visual inspection.
Source text: as §1, §2

B1: Dst1p: yeast protein with a role in transcription elongation (protein, UniProt P07273 1-309, looked up)
Transcription elongation …: MDSKEVLVHVKNLEKNKSNDAAVLEILHVLDKEFVPTEKLLRETKVGVEVNKFKKSTNVEISKLVKKMISSWKDAINKNKRSRQAQQHHQDHAPGNAEDKTTVGESVNGVQQPASSQSDAMKQDKYVSTKPRNSKNDGVDTAIYHHKLRDQVLKALYDVLAKESEHPPQSILHTAKAIESEMNKVNNCDTNEAAYKARYRIIYSNVISKNNPDLKHKIANGDITPEFLATCDAKDLAPAPLKQKIEEIAKQNLYNAQGATIERSVTDRFTCGKCKEKKVSYYQLQTRSADEPLTTFCTCEACGNRWKFS
On to B1, for which the calmodulin binding entry with calmodulin is listed as “identified”.

B2: Hst3p: transcriptional silencer (protein, UniProt P53687 1-447, looked up)
NAD-dependent histone …: MTSVSPSPPASRSGSMCSDLPSSLQTEKLAHIIGLDADDEVLRRVTKQLSRSRRIACLTGAGISCNAGIPDFRSSDGLYDLVKKDCSQYWSIKSGREMFDISLFRDDFKISIFAKFMERLYSNVQLAKPTKTHKFIAHLKDRNKLLRCYTQNIDGLEESIGLTLSNRKLPLTSFSSHWKNLDVVQLHGDLKTLSCTKCFQTFPWSRYWSRCLRRGELPLCPDCEALINKRLNEGKRTLGSNVGILRPNIVLYGENHPSCEIITQGLNLDIIKGNPDFLIIMGTSLKVDGVKQLVKKLSKKIHDRGGLIILVNKTPIGESSWHGIIDYQIHSDCDNWVTFLESQIPDFFKTQDQIKKLRQLKREASDLRKQMKAQKDSIGTPPTTPLRTAQGIDIQGNNELNTKIKSLNTVKRKILSPENSSEEDEEENLDTRKRAKIRPTFGDNQAS
As for B2, the “binding of polyA+ RNA probe” value in the assay with RNA-polyA+ was “identified”.

B3: Bur6p: alpha-subunit of the NC2 (Dr1/Drap1) repressor of class II transcription (protein, UniProt P40096 1-142, looked up)
Negative cofactor 2 complex …: MADQVPVTTQLPPIKPEHEVPLDAGGSPVGNMGTNSNNNNELGDVFDRIKTHFPPAKVKKIMQTDEDIGKVSQATPVIAGRSLEFFIALLVKKSGEMARGQGTKRITAEILKKTILNDEKFDFLREGLCVEEGQTQPEEESA
With B3, the “binding of genomic DNA probe” value in the assay with total yeast genomic DNA is on record as “identified”. Besides, the “binding of polyA+ RNA probe” value with RNA-polyA+ is “bound both the DNA and RNA probes”.

B4: Smd1p: U1 snRNP component (protein, UniProt Q02260 1-146, looked up)
Small nuclear …: MKLVNFLKKLRNEQVTIELKNGTTVWGTLQSVSPQMNAILTDVKLTLPQPRLNKLNSNGIAMASLYLTGGQQPTASDNIASLQYINIRGNTIRQIILPDSLNLDSLLVDQKQLNSLRRSGQIANDPSKKRRRDFGAPANKRPRRGL
On to B4, for which, in the assay on RNA-polyA+, the “binding of polyA+ RNA probe” value is reported as “identified”.

B5: Tos8p: yeast transcription factor suggested to be involved in RNA splicing and processing (protein, UniProt P53147 1-276, looked up)
Homeobox protein TOS8: MGTSIVNLNQKIELPPIQVLFESLNRENETKPHFEERRLYQPNPSFVPRTNIAVGSPVNPVPVSSPVFFIGPSPQRSIQNHNAIMTQNIRQYPVIYNNNREVISTGERNYIITVGGPPVTSSQPEYEHISTPNFYQEQRLAQPHPVNESMMIGGYTNPQPISISRGKMLSGNISTNSVRGSNNGYSAKEKKHKAHGKRSNLPKATVSILNKWLHEHVNNPYPTVQEKRELLAKTGLTKLQISNWFINARRRKIFSGQNDANNFRRKFSSSTNLAKF
With B5, the “binding of polyA+ RNA probe” value in the assay on RNA-polyA+ is reported as “identified”.

These data come from patent publication US20050182242A1, “Global analysis of protein activities using proteome chips” (priority 2001, published 2005).
